Source: patent US20150284743A1, “METHODS FOR THE ENZYMATIC PRODUCTION OF ISOPRENE FROM ISOPRENOL” (GLOBAL BIOENERGIES, priority 2012, published 2015)

Tests used:
[1] = substrate: C=C(C)CCO; assay: Isoprenol phosphorylation, pyruvate kinase/lactate dehydrogenase coupled assay (ADP release), R. leguminosarum kinase; type: biochemical, Rhizobium leguminosarum; details: other: isoprenol 0-40 mM, 5 mM ATP, pH 7.5, 37° C., enzyme 0.025 mg/ml
Description: (§1) The genes encoding the enzymes of interest were cloned in the pET 25b(+) vector (Novagen). Nucleotide sequences encoding a chloroplast transit peptide in plant terpene synthases were removed, resulting in DNA sequences encoding the mature proteins only. […] Competent E. coli BL21(DE3) cells (Novagen) were transformed with this vector by heat shock. The transformed cells were grown with shaking (160 rpm) on ZYM-5052 auto-induction medium (Studier FW, Prot. Exp. Pur. 41, (2005), 207-234) for 6 h at 37° C. and protein expression was continued at 28° C. or 20° C. overnight (approximately 16 h). The cells were collected by centrifugation at 4° C., 10,000 rpm for 20 min and the pellets were frozen at −80° C.
(§2) The pellets from 200 ml of culture cells were thawed on ice and resuspended in 5 ml of Na2HPO4 pH 8 containing 300 mM NaCl, 5 mM MgCl2 and 1 mM DTT. Twenty microliters of lysonase (Novagen) were added. Cells were incubated 10 minutes at room temperature and then returned to ice for 20 minutes. Cell lysis was completed by sonication for 3×15 seconds. The bacterial extracts were then clarified by centrifugation at 4° C., 10,000 rpm for 20 min. The clarified bacterial lysates were loaded on PROTINO-1000 Ni-TED column (Macherey-Nagel) allowing adsorption of 6-His tagged proteins. Columns were washed and the enzymes of interest were eluted with 4 ml of 50 mM Na2HPO4 pH 8 containing 300 mM NaCl, 5 mM MgCl2, 1 mM DTT, 250 mM imidazole. […] Protein concentrations were quantified according to the Bradford method. […]
(§3) The release of ADP that is associated with isoprenol phosphorylation was quantified using the pyruvate kinase/lactate dehydrogenase coupled assay (FIG. 4). The purified 4-methyl-5-(2-hydroxyethyl)thiazole kinases from Escherichia coli, Bacillus subtilis, Rhizobium leguminosarum were thus evaluated for their ability to phosphorylate isoprenol. […]
(§4) Each assay was started by the addition of the enzyme at a final concentration 0.025 mg/ml and the decrease of NADH was monitored by following its absorbance at 340 nm. […]

[2] = substrate: CC(C)=CCO; assay: Prenol phosphorylation, pyruvate kinase/lactate dehydrogenase coupled assay (ADP release), R. leguminosarum kinase; type: biochemical, Rhizobium leguminosarum; details: other: prenol, 5 mM ATP, pH 7.5, 37° C., enzyme 0.5 mg/ml
Description: as §1, §2
(§5) The purified 4-methyl-5-(2-hydroxyethyl) thiazole kinases from Escherichia coli, Bacillus subtilis, Rhizobium leguminosarum were evaluated for their ability to phosphorylate prenol. The release of ADP associated to prenol phosphorylation was quantified using the pyruvate kinase/lactate dehydrogenase coupled assay (FIG. 4). […]
(§6) Each assay was started by the addition of the enzyme at a final concentration 0.5 mg/ml and the decrease of NADH was monitored by following its absorbance at 340 nm. […]

[3] = substrate: C=C(C)CCOP(=O)(O)O; assay: Isoprene production from isoprenyl monophosphate, GC/FID; type: biochemical, Eucalyptus globulus; details: other: isoprenyl monophosphate 0-150 mM, pH 7.5, 20 mM MgCl2, 37° C., 18 h, enzyme 4 mg/ml
Description: as §1
The pellets from 200 ml of culture cells were thawed on ice and resuspended in 5 ml of Na2HPO4 pH 8 containing 300 mM NaCl, 5 mM MgCl2 and 1 mM DTT. […] Protein concentrations were quantified according to the Bradford method. […]
2.5 mg of the terpene synthase was added to 0.5 ml of reaction mixture. […] Gas chromatography-mass spectrometry (GC-MS) was then used to confirm the identity of the product detected by gas chromatography with flame ionization. The samples were analyzed on a Varian 3400Cx gas chromatograph equipped with Varian Saturn 3 mass selective detector. […]
Kinetic parameters of isoprene production were evaluated in the following conditions: […]

[4] = substrate: CC(C)=CCOP(=O)(O)O; assay: purified protein, by the assay type; details: other: prenyl monophosphate 0-150 mM, pH 7.5, 20 mM MgCl2, 37° C., 18 h, enzyme 2 mg/ml
[5] = substrate: C=C(C)CCO; assay: Isoprenol phosphorylation, pyruvate kinase/lactate dehydrogenase coupled assay (ADP release), B. subtilis kinase; type: biochemical, Bacillus subtilis; details: other: isoprenol 0-40 mM, 5 mM ATP, pH 7.5, 37° C., enzyme 0.025 mg/ml
Description: as §1, §2, §3, §4

[6] = substrate: CC(C)=CCO; assay: Prenol phosphorylation, pyruvate kinase/lactate dehydrogenase coupled assay (ADP release), B. subtilis kinase; type: biochemical, Bacillus subtilis; details: other: prenol, 5 mM ATP, pH 7.5, 37° C., enzyme 0.5 mg/ml
Description: as §1, §2, §5, §6

[7] = Screening for isoprene production from isoprenyl monophosphate with purified terpene synthases; type: biochemical; details: 10 mM isoprenyl monophosphate, 37° C., 17 h, GC-FID / GC-MS of headspace
Description: The enzymatic assays were carried out under the following conditions at 37° C.:
10 mM isoprenyl monophosphate (Sigma)
2.5 mg of the terpene synthase was added to 0.5 ml of reaction mixture. An enzyme-free control reaction was carried out in parallel. Assays were incubated at 37° C. for 17 h in a 1.5 ml sealed glass vial (Interchim) with shaking. One ml of the headspace phase was then collected and injected into a gas chromatograph Varian 430-GC chromatograph equipped with a flame ionization detector (FID). Nitrogen was used as carrier gas with a flow rate of 30 mL/min. Volatile compounds were chromatographically separated on Rtx-1 column (Restek) using an isothermal mode at 100° C. The enzymatic reaction product was identified by direct comparison with isoprene standard (Sigma). Under these GC conditions, the retention time for isoprene was 3.47 min. […] Gas chromatography-mass spectrometry (GC-MS) was then used to confirm the identity of the product detected by gas chromatography with flame ionization. The samples were analyzed on a Varian 3400Cx gas chromatograph equipped with Varian Saturn 3 mass selective detector. A mass spectrum of isoprene obtained by enzymatic conversion of isoprenyl monophosphate was similar to the one of commercial isoprene (FIG. 8).

[8] = substrate: C=C(C)CCO; assay: Isoprenol phosphorylation, pyruvate kinase/lactate dehydrogenase coupled assay (ADP release), E. coli kinase; type: biochemical, Escherichia coli; details: other: isoprenol 0-40 mM, 5 mM ATP, pH 7.5, 37° C., enzyme 0.025 mg/ml
Description: as §1, §2, §3, §4

[9] = substrate: CC(C)=CCO; assay: Prenol phosphorylation, pyruvate kinase/lactate dehydrogenase coupled assay (ADP release), E. coli kinase; type: biochemical, Escherichia coli; details: other: prenol, 5 mM ATP, pH 7.5, 37° C., enzyme 0.5 mg/ml
Description: as §1, §2, §5, §6

B1: Rhizobium leguminosarum 4-methyl-5-(2-hydroxyethyl)thiazole kinase (hydroxyethylthiazole kinase, EC 2.7.1.50) (Rhizobium johnstonii 3841) (protein)
chain: MQTRTTPGAMLKAMREKPPLVQCITNYVAMNIAANVLLAAGASPAMVHAAEEAGEFAAIASALTINIGTLSTQWIDGMQAAAKAATSAGKPWVLDPVAHYATAFRRNAVAELLALKPTIIRGNASEIIALAGGESRGQGVDSRDPVEQAEGSARWLAERQRAVVAVTGAVDFVTDGERAVRIEGGSALMPQVTALGCSLTCLVGAFAATAPEDIFGATVAALSTFAIAGEEAALGAAGPGSFSWRFLDALAALDAETLDARARISAA
[1]
  Km: 10 mM
  kcat: 0.8 s⁻¹
  kcat/Km: 80 M⁻¹ s⁻¹
[2]
  Km: 10 mM
  kcat: 0.01 s⁻¹
  kcat/Km: 1 M⁻¹ s⁻¹

B2: Eucalyptus globulus monoterpene synthase (UniProt Q0PCI4), SEQ ID NO: 6 (Eucalyptus globulus) (protein)
chain: ASTQISDPQEGRRSANYQPSVWTYNYLQSIVAGEGRQSRREVEQQKEKVQILEEEVRGALNDEKAETFTIFATVDDIQRLGLGDHFEEDISNALRRCVSKGAVFMSLQKSLHGTALGFRLLRQHGYEVSQDVFKIFLDESGSFVKTLGGDVQGVLSLYEASHLAFEEEDILHKARSFAIKHLENLNSDVDKDLQDQVKHELELPLHRRMPLLEARRSIEAYSRREYTNPQILELALTDFNVSQSTLQRDLQEMLGWWNNTGLAKRLSFARDRLIECFFWAVGIAHEPSLSICRKAVTKAFALILVLDDVYDVFGTLEELELFTEAVRRWDLNAVEDLPVYMKLCYLALYNSVNEMAYETLKEKGENVIPYLAKAWYDLCKAFLQEAKWSNSRIIPGVEEYLNNGWVSSSGSVMLIHAYFLASPSIRKEELESLEHYHDLLRLPSLIFRLTNDIASSSAELERGETTNSIRCFMQEKGISELEARECVKEEIDTAWKKMNKYMVDRSTFNQSFVRMTYNLARMAHCVYQDGDAIGSPDDLSWNRVHSLIIKPISPAA
[3]
  Km: 40 mM
  kcat: 1.6e-05 s⁻¹
[4]
  Km: 60 mM
  kcat: 0.00056 s⁻¹

B3: Bacillus subtilis 4-methyl-5-(2-hydroxyethyl)thiazole kinase (hydroxyethylthiazole kinase, EC 2.7.1.50) (Bacillus subtilis subsp. subtilis str. 168) (protein)
chain: MDAQSAAKCLTAVRRHSPLVHSITNNVVTNFTANGLLALGASPVMAYAKEEVADMAKIAGALVLNIGTLSKESVEAMIIAGKSANEHGVPVILDPVGAGATPFRTESARDIIREVRLAAIRGNAAEIAHTVGVTDWLIKGVDAGEGGGDIIRLAQQAAQKLNTVIAITGEVDVIADTSHVYTLHNGHKLLTKVTGAGCLLTSVVGAFCAVEENPLFAAIAAISSYGVAAQLAAQQTADKGPGSFQIELLNKLSTVTEQDVQEWATIERVTVS
notes: homotrimer
[5]
  Km: 3 mM
  kcat: 0.03 s⁻¹
  kcat/Km: 10 M⁻¹ s⁻¹
[6]
  Km: 3 mM
  kcat: 0.006 s⁻¹
  kcat/Km: 2 M⁻¹ s⁻¹

B4: monoterpene synthase from E. globulus: purified monoterpene synthase of Eucalyptus globulus (UniProt Q0PCI4, SEQ ID NO: 6) (protein, listed as Eucalyptus globulus)
chain: MALRLLFTPHLPVLSSRRANGRVRCSASTQISDPQEGRRSANYQPSVWTYNYLQSIVAGEGRQSRREVEQQKEKVQILEEEVRGALNDEKAETFTIFATVDDIQRLGLGDHFEEDISNALRRCVSKGAVFMSLQKSLHGTALGFRLLRQHGYEVSQDVFKIFLDESGSFVKTLGGDVQGVLSLYEASHLAFEEEDILHKARSFAIKHLENLNSDVDKDLQDQVKHELELPLHRRMPLLEARRSIEAYSRREYTNPQILELALTDFNVSQSTLQRDLQEMLGWWNNTGLAKRLSFARDRLIECFFWAVGIAHEPSLSICRKAVTKAFALILVLDDVYDVFGTLEELELFTEAVRRWDLNAVEDLPVYMKLCYLALYNSVNEMAYETLKEKGENVIPYLAKAWYDLCKAFLQEAKWSNSRIIPGVEEYLNNGWVSSSGSVMLIHAYFLASPSIRKEELESLEHYHDLLRLPSLIFRLTNDIASSSAELERGETTNSIRCFMQEKGISELEARECVKEEIDTAWKKMNKYMVDRSTFNQSFVRMTYNLARMAHCVYQDGDAIGSPDDLSWNRVHSLIIKPISPAA
[7]
  Isoprene production from isoprenyl monophosphate: isoprene produced

B5: Escherichia coli 4-methyl-5-(2-hydroxyethyl)thiazole kinase (hydroxyethylthiazole kinase, EC 2.7.1.50) (Escherichia coli K-12) (protein)
chain: MQVDLLGSAQSAHALHLFHQHSPLVHCMTNDVVQTFTANTLLALGASPAMVIETEEASQFAAIASALLINVGTLTQPRAQAMRAAVEQAKSSQTPWTLDPVAVGALDYRRHFCHELLSFKPAAIRGNASEIMALAGIANGGRGVDTTDAAANAIPAAQTLARETGAIVVVTGEMDYVTDGHRIIGIHGGDPLMTKVVGTGCALSAVVAACCALPGDTLENVASACHWMKQAGERAVARSEGPGSFVPHFLDALWQLTQEVQA
[8]
  Km: 7.5 mM
  kcat: 1 s⁻¹
  kcat/Km: 130 M⁻¹ s⁻¹
[9]
  Km: 3 mM
  kcat: 0.05 s⁻¹
  kcat/Km: 16 M⁻¹ s⁻¹
